A short description of series [1]: Microrheology of protein solutions (bead tracking, G′/G″). It counts as physicochemical. The protocol:
Microrheology. To assess the mechanical properties of all proteins, microrheology was performed using an inverted Leica DM-138 IRB microscope with a 20× objective lens at 22 and 42° C., maintained by a Lincum temperature-controlled cell. […] A total of 2 μL of 2 wt % fluorescent-amidated polystyrene beads (1.0 μm) was added to 10 μL of protein solution. Deionized water, 2 wt % beads, was measured as a control. Brownian motion of the beads was observed by Peltier-cooled video camera (QiCam) and digitally recorded. Mean square displacement (MSD) measurements of the beads were determined by IDL software (Research Systems, Inc.). Using the comprehensive Stokes-Einstein equation, the elastic modulus (G′) and viscous modulus (G″) were determined as a function of angular frequency (ω).
Mechanical Properties. Bulk rheological properties of the protein polymers were evaluated by microrheology (FIG. 4).
Upon fluorination, more depressed concentration-dependent percolation points for the protein polymers were observed. […] Two types of modifications to the rheological behavior are observed from EC and CE sets of constructs.

A short description of series [2]: Inverse temperature transition (Tt) by UV/vis absorbance at 350 nm. Format: physicochemical. The following applies: 4 μM protein in 10 mM phosphate buffer, pH 8.0, heated 10 to 65° C. The protocol:
UV/Vis Spectroscopy. UV/vis spectroscopy was performed on a Cary 100 UV/vis spectrometer (Agilent) to determine the inverse temperature transition (Tt) of 4 μM protein in 10 mM phosphate buffer, pH 8.0. The absorbance at 350 nm was measured as each protein sample was heated from 10 to 65° C., at a heating rate of 0.5° C./min.
Temperature-Dependent Supramolecular Assembly. The effect of temperature on the supramolecular assembly of the proteins was examined via absorption at 350 nm. The inverse temperature transition (Tt) was determined via temperature-dependent absorption (FIG. 3, insets). The Tt values for all fluorinated block polymers were different, affirming the significance of block orientation and number. […] In comparison to the wt proteins, fluorination appeared to depress the Tt of CE protein from 36 to 28° C.

Entries after “also recorded” stand apart in the source; their conditions may differ.

B1: pFF-CE: COMPcc-Elastin diblock protein polymer with phenylalanine residues replaced by p-fluorophenylalanine (SEQ ID NO: 23) (protein)
chain: MRGSHHHHHHGSACELAATATATATATATAACGDLAPQMLRELQETNAALQDVRELLRQQVKEITFLKNTVMESDASGLQAATATATATATATAVDKPIAASAVPGVGVPGVGVPGFGVPGVGVPGVGVPGVGVPGVGVPGFGVPGVGVPGVGVPGVGVPGVGVPGFGVPGVGVPGVGVPGVGVPGVGVPGFGVPGVGVPGVGVPGVGVPGVGVPGFGVPGVGVPGVGVPLEGSGTGAKLN
modifications: Phe replaced by p-fluorophenylalanine
As to B1, the rheological character entry is given as “viscous/viscoelastic” in series [1] (1.25 mg mL^−1, 22° C.); “viscous/viscoelastic” in series [1] (2.5 mg mL^−1, 22° C.); “elastic behavior; also recorded: dominant elastic modulus” in series [1] (2.5 mg mL^−1, 42° C.). For the same molecule, in series [2], the “inverse temperature transition (Tt)” value was 28 °C.

B2: pFF-ECE: Elastin-COMPcc-Elastin triblock protein polymer with phenylalanine residues replaced by p-fluorophenylalanine (SEQ ID NO: 17) (protein)
chain: MRGSHHHHHHGSKPIAASAVPGVGVPGVGVPGFGVPGVGVPGVGVPGVGVPGVGVPGFGVPGVGVPGVGVPGVGVPGVGVPGFGVPGVGVPGVGVPGVGVPGVGVPGFGVPGVGVPGVGVPGVGVPGVGVPGFGVPGVGVPGVGVPLEGSELAATATATATATATAACGDLAPQMLRELQETNAALQDVRELLRQQVKEITFLKNTVMESDASGLQAATATATATATATAVDKPIAASAVPGVGVPGVGVPGFGVPGVGVPGVGVPGVGVPGVGVPGFGVPGVGVPGVGVPGVGVPGVGVPGFGVPGVGVPGVGVPGVGVPGVGVPGFGVPGVGVPGVGVPGVGVPGVGVPGFGVPGVGVPGVGVPLEGSGTGAKLN
modifications: Phe replaced by p-fluorophenylalanine
Regarding B2, the rheological character entry in series [1] (1.25 mg mL^−1, 42° C.) is recorded as “elastic network formation”. The “inverse temperature transition (Tt)” value in series [2] was 32 °C.

B3: wt-ECE: non-fluorinated Elastin-COMPcc-Elastin block polymer (SEQ ID NO: 17) (protein)
chain: B2 chain
In the case of B3, the rheological character result in series [1] (1.25 mg mL^−1, 42° C.) is “completely viscous”; in series [1] (up to 10 mg mL^−1), “viscoelastic”.

B4: pFF-EC: Elastin-COMPcc diblock protein polymer with phenylalanine residues replaced by p-fluorophenylalanine (SEQ ID NO: 15) (protein)
chain: MRGSHHHHHHGSKPIAASAVPGVGVPGVGVPGFGVPGVGVPGVGVPGVGVPGVGVPGFGVPGVGVPGVGVPGVGVPGVGVPGFGVPGVGVPGVGVPGVGVPGVGVPGFGVPGVGVPGVGVPGVGVPGVGVPGFGVPGVGVPGVGVPLEGSELAATATATATATATAACGDLAPQMLRELQETNAALQDVRELLRQQVKEITFLKNTVMESDASGLQAATATATATATATAVDLQPS
modifications: Phe replaced by p-fluorophenylalanine
Regarding B4, the rheological character entry in series [1] (1.25 mg mL^−1, 22° C.) was “viscoelastic behavior”; in series [1] (2.5 mg mL^−1, 22° C.), “viscoelastic behavior”; in series [1] (2.5 mg mL^−1, 42° C.) it was “more elastic character”. The “inverse temperature transition (Tt)” value in series [2] is 25 °C.

B5: wt-EC: non-fluorinated Elastin-COMPcc block polymer (SEQ ID NO: 15) (protein)
chain: B4 chain
For the molecule B5, the rheological character result is “predominantly viscous” in series [1] (1.25 mg mL^−1, 22° C.); “more elastic character” in series [1] (2.5 mg mL^−1, 42° C.); “elastic network” in series [1] (10 mg mL^−1); “predominantly viscous” in series [1] (concentrations below 2.5 mg mL^−1).

B6: wt-CE: non-fluorinated COMPcc-Elastin block polymer (SEQ ID NO: 16) (protein)
chain: MRGSHHHHHHGSACELAATATATATATATAACGDLAPQMLRELQETNAALQDVRELLRQQVKEITFLKNTVMESDASGLQAATATATATATATAVDKPIAASAVPGVGVPGVGVPGFGVPGVGVPGVGVPGVGVPGVGVPGFGVPGVGVPGVGVPGVGVPGVGVPGFGVPGVGVPGVGVPGVGVPGVGVPGFGVPGVGVPGVGVPGVGVPGVGVPGFGVPGVGVPGVGVPLEGSGTGAKL
On to B6, for which the rheological character result in series [1] (1.25 mg mL^−1, 22° C.) is on record as “viscous/viscoelastic”; in series [1] (2.5 mg mL^−1, 22° C.), “viscous/viscoelastic”; in series [1] (2.5 mg mL^−1, 42° C.), “viscoelastic character”; in series [1] (up to 10 mg mL^−1), “predominantly viscous”. Further, the “inverse temperature transition (Tt)” value in series [2] is 36 °C.

The values above are taken from patent US9359408B2, “Fluorinated protein-based polymeric carriers” (New York University, priority 2007, dated 2016).
